Where two headings read alike, the source gives them in different places.
Assays:
[1] = target: T1, human pIgR extracellular domain 1 (D1) (human, UniProt P01833 19-127); assay: ECL (MSD) heat map, HIS-tagged construct captured via anti-HIS, anti-human-Fc detection
T1 construct: HIS-tagged construct made in HEK293 cells; also called hpIgR domain-1
Procedure: (§1) A meso-scale discovery (MSD) platform was used for conducting epitope mapping and epitope burial studies. To test the binding of VHH-mono-Fc molecules to purified pIgR protein constructs, Streptavidin MSD plates were coated with a biotinylated anti-HIS antibody (2 μg/ml in PBS) for 1 hour at RT with 1000 rpm, washed 3× with PBT (PBS+0.1% Tween-20), incubated with blocking buffer for 1 hour at RT, incubated with His-tagged pIgR proteins (10 μg/ml in PBS) for 2 hours at RT with 1000 rpm, washed 3× with PBT, incubated with VHH-mono-Fc molecules (100 μg/ml in PBS) for 2 hours at RT with 1000 rpm, washed 3× with PBT, incubated with ruthenylated-anti-human-Fc antibody (2 μg/ml in PBS) for 1 hour at RT with 1000 rpm, washed 3× with PBT and read plates in 40 ul reading buffer using the MSD imager. ECLU values were plotted as a heatmap.
(§2) Binding of VHH-mFc molecules were tested to immobilized pIgR constructs by the electrochemiluminescence method.

[2] = target: T2, human pIgR extracellular domain 5 (D5) (human, UniProt P01833 460-565); assay: as above
T2 construct: HIS-tagged construct made in HEK293 cells; also called hpIgR domain 5
Procedure: as §1, §2

[3] = target: T3, human pIgR extracellular domain 1-domain 2 (D1-D2) (human, UniProt P01833 19-240); assay: as above
T3 construct: HIS-tagged construct made in HEK293 cells

[4] = target: T4, human pIgR extracellular domain 2 (D2) (human, UniProt P01833 128-242); assay: as above
T4 construct: HIS-tagged construct made in HEK293 cells; also called hpIgR domain 2

[5] = target: T5, human pIgR extracellular domain 4-domain 5 (D4-D5) (human, UniProt P01833 350-565); assay: as above
T5 construct: HIS-tagged construct made in HEK293 cells; also called hpIgR domains 4-5
T5 chain: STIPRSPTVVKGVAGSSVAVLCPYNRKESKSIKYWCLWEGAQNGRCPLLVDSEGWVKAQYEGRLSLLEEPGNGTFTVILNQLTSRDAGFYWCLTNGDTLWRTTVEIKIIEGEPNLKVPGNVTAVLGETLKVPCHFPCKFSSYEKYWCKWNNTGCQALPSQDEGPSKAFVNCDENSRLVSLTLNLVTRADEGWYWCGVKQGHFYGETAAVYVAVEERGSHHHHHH

[6] = target: T6, human pIgR, full-length, on cells (human, UniProt P01833 19-764); assay: cell-based or functional assay
[7] = target: T6, human pIgR, full-length, on cells; assay: cell-based or functional assay; remark: listed apart in the source
[8] = target: T6, human pIgR, full-length, on cells; assay: cell-based or functional assay; remark: listed apart in the source
[9] = target: T6, human pIgR, full-length, on cells; assay: flow cytometry on MDCK-hpIgR cells
Procedure: (§3) Flow Cytometry was performed as follows. To test whether VHH-mono-Fc molecules recognize cell-surface hpIgR, Madin-Darby canine kidney (MDCK) cells engineered to express full-length hpIgR were used. Cells were cultured in Dulbecco's modified Eagle's medium containing 10% fetal calf serum at 37° C. with 5% CO₂. Cells were split into equal fractions (≈70,000 cells) and incubated with increasing concentrations of VHH-mono-Fc molecules for 30 min at 4 C. […] Cells were washed twice with cold staining buffer, resuspended in running buffer and analyzed with an iQue Screener (IntelliCyt Corporation). Binding was assessed by RL1 (A647) Geomeans from the live cell population and EC50 was calculated by fitting log VHH concentration versus MFI in Prism (Graphpad).

[10] = target: T7, human pIgR extracellular domain (ECD) (human, UniProt P01833 19-638); assay: BLI; summary table, repeats Table 1
T7 construct: also called hpIgR ECD
Target sequence in this assay (P01833 other isoform, or with tags, fused parts or gaps): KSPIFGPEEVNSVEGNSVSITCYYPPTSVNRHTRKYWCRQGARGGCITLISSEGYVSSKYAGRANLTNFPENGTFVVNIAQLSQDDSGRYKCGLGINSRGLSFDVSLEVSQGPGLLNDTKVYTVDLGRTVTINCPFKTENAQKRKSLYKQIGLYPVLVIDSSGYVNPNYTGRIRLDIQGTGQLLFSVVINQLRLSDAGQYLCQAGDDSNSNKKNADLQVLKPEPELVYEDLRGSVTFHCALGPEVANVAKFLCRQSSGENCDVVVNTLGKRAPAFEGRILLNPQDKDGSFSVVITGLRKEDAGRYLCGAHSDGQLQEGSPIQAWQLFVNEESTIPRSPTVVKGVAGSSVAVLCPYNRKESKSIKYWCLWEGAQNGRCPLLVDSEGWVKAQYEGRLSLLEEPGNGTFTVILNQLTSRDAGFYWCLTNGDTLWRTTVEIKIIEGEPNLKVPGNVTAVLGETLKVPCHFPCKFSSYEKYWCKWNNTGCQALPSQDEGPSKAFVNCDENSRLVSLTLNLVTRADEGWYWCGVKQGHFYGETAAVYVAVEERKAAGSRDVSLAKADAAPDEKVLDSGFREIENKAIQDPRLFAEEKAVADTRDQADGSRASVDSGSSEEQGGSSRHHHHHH

[11] = target: T7, human pIgR extracellular domain (ECD); assay: BLI; summary table, repeats Table 1; remark: listed apart in the source
Target sequence in this assay (P01833 other isoform, or with tags, fused parts or gaps): as above

[12] = target: T7, human pIgR extracellular domain (ECD); assay: BLI (Octet), VHH-mono-Fc and hpIgR ectodomain
Target sequence in this assay (P01833 other isoform, or with tags, fused parts or gaps): as above

[13] = target: T7, human pIgR extracellular domain (ECD); assay: ECL (MSD), hpIgR-ECD coated, anti-Fc detection
[14] = target: T7, human pIgR extracellular domain (ECD); assay: ECL (MSD), hpIgR-ECD coated, anti-VHH detection
Target sequence in this assay (P01833 other isoform, or with tags, fused parts or gaps): as above
Procedure: To check whether VHH recognizes a buried epitope on pIgR, EC₅₀ values were measured for VHH-mono-Fc molecules binding to hpIgR-ECD protein by electrochemiluminescence using two different detection antibodies, an anti-Fc antibody and an anti-VHH antibody. pIgR ECD (10 μg/ml in PBS) was coated on high-bind MSD plates for 2 hours at RT with 1000 rpm, incubated with blocking buffer for 1 hour at RT, incubated with VHH-mono-Fc molecules (increasing concentrations in PBS) for 2 hours at RT with 1000 rpm, washed 3× with PBT, incubated with ruthenylated secondary antibody (2 μg/ml in PBS) for 1 hour at RT with 1000 rpm, washed 3× with PBT and read plates in 40 ul reading buffer using the MSD imager. EC50 was calculated by fitting log VHH concentration versus log ECLU in Prism (Graphpad). The increase in EC₅₀ (>50-fold) due to anti-VHH detection was used as a measure to determine whether VHH recognized buried epitope on pIgR.

[15] = target: T7, human pIgR extracellular domain (ECD); assay: ECL (MSD), anti-VHH detection against anti-Fc detection
Target sequence in this assay (P01833 other isoform, or with tags, fused parts or gaps): as above

[16] = target: T7, human pIgR extracellular domain (ECD); assay: BLI (Octet RED384), 1:1 fit, 25 C, PBS
Target sequence in this assay (P01833 other isoform, or with tags, fused parts or gaps): as above

[17] = target: T5, human pIgR extracellular domain …; assay: BLI (Octet RED384), 1:1 fit, 25 C, PBS
[18] = target: T6, human pIgR, full-length, on cells; assay: flow cytometry on MDCK-hpIgR cells; summary table, repeats Table 1
Procedure: as §3

[19] = target: T6, human pIgR, full-length, on cells; assay: as above; remark: listed apart in the source
Procedure: as §3

[20] = target: T7, human pIgR extracellular domain (ECD); assay: BLI (Octet RED384), 1:1 fit, 25 C, PBS; column kdis
[21] = target: T5, human pIgR extracellular domain …; assay: as above
[22] = target: T8, hpIgR_D3; assay: ECL (MSD) heat map, HIS-tagged construct captured via anti-HIS, anti-human-Fc detection;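 also: VHH-mono-Fc molecules tested at 100 µg/ml for 2 h on captured His-tagged pIgR constructs (10 µg/ml), read-out as electrochemiluminescence units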
T8 construct: HIS-tagged construct from HEK293 cells; also called human pIgR extracellular domain 3 (D3); hD3
Procedure: as §1, §2
T8 HIS-tagged domain construct: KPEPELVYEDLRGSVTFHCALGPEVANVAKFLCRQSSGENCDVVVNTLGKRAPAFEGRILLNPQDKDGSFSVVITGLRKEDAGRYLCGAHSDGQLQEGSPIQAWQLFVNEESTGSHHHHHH

[23] = target: T4, human pIgR extracellular domain 2 (D2); assay: as above; remark: listed apart in the source
Procedure: as §1, §2

[24] = target: T9, hpIgR_D2-D3; assay: as above
T9 construct: HIS-tagged construct from HEK293 cells; also called human pIgR extracellular domain 2-domain 3 (D2-D3); hD2-D3
T9 HIS-tagged domain construct: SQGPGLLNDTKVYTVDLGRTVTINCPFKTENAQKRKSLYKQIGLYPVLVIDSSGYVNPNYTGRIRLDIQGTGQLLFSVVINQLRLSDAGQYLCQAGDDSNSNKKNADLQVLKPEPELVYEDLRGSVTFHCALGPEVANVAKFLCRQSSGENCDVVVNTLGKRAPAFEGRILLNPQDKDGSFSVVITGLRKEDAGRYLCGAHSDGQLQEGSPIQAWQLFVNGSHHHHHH

[25] = target: T1, human pIgR extracellular domain 1 (D1); assay: as above; remark: listed apart in the source
[26] = target: T5, human pIgR extracellular domain …; assay: BLI: IgA binding to immobilized HIS-tagged hD4-D5
[27] = target: T10, hD3-D4 (human, UniProt P01833); assay: BLI response heat map (0-1.0 nm), HIS-tagged pIgR construct immobilized
T10 construct: HIS-tagged two-domain construct; also called human pIgR extracellular domain 3-domain 4 (D3-D4)

[28] = target: T8, hpIgR_D3; assay: as above
[29] = target: T9, hpIgR_D2-D3; assay: as above
[30] = target: T11, hpIgR domain-1 with teleost fish CDR1 (hD1 tCDR1) (human, UniProt P01833 19-127, limits assumed); assay: as above
T11 construct: CDR-swapped hpIgR domain-1 mutant, HIS-tagged, made in HEK293 cells; not shown: HIS tag

[31] = target: T12, hpIgR domain-1 with teleost fish CDR2 (hD1 tCDR2) (human, UniProt P01833 19-127, limits assumed); assay: as above
T12 construct: CDR-swapped hpIgR domain-1 mutant, HIS-tagged, made in HEK293 cells; not shown: HIS tag
T12 chain: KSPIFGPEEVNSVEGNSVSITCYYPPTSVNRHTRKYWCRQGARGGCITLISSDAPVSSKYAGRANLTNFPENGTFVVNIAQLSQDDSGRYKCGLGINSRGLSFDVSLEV

[32] = target: T4, human pIgR extracellular domain 2 (D2); assay: as above
[33] = target: T2, human pIgR extracellular domain 5 (D5); assay: as above
[34] = target: T5, human pIgR extracellular domain …; assay: BLI: IgA binding to immobilized HIS-tagged hD4-D5; sheet says 'IgA binds hD4-D5 weakly'

T6 sequence (P01833 19-764): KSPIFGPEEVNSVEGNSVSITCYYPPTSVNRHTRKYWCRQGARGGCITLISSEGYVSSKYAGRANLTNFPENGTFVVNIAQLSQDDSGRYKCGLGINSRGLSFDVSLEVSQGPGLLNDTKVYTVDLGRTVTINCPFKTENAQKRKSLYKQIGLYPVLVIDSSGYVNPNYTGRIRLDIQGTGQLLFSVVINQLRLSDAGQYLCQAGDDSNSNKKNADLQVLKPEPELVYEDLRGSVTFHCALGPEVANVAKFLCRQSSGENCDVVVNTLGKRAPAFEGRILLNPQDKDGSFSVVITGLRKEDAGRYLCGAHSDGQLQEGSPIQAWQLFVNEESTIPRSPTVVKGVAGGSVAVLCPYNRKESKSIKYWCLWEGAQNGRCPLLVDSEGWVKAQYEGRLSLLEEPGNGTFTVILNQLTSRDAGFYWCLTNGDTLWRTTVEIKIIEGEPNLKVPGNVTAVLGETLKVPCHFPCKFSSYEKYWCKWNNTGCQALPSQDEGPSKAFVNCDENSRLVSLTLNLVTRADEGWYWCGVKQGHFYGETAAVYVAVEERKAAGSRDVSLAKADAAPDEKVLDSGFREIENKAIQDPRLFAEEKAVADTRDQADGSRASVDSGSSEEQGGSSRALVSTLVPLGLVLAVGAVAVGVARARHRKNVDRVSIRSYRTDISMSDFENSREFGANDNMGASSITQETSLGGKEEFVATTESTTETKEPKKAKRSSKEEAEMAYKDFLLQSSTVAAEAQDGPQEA
T10 sequence (P01833 240-459 limits assumed): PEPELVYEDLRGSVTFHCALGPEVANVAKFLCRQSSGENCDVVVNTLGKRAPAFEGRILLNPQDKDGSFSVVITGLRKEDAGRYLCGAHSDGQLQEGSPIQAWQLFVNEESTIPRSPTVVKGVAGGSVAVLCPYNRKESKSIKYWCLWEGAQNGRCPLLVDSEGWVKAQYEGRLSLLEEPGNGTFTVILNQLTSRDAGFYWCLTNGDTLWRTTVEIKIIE

B1: VHH1 (Fc fusion)
VHH-linker-mono-Fc chain: QVQLVESGGGLVQAGGSLKLACAAPGLTFSSYRMGWFRQAPGQEREFVAAIDWNGRGTYYRYYADSVKGRSTISRDNAKNTMYLQMNSLKPEDTAVYYCAAGSIDLNWYGGMDYWGQGTQVTVSSEPKTPKPQPQPQLQPQPNPTTESKSPKSPAPELLGGPSVFLFPPKPKDTLMISRTPEVTCVVVDVSHEDPEVKFNWYVDGVEVHNAKTKPREEQYNSTYRVVSVLTVLHQDWLNGKEYKCKVSNKALPAPIEKTISKAKGQPREPQVYTKPPSREEMTKNQVSLSCLVKGFYPSDIAVEWESNGQPENNYKTTVPVLDSDGSFRLASYLTVDKSRWQQGNVFSCSVMHEALHNHYTQKSLSLSPGK
notes: Control VHH; also called mpIgR_011; VHH1-linker-mono-Fc protein
- binding result [1]: no binding (tested: 100 ug/ml (single concentration))
- binding result [2]: no binding (tested: 100 ug/ml (single concentration))
- binding result [3]: no binding (tested: 100 ug/ml (single concentration))
- binding result [4]: no binding (tested: 100 ug/ml (single concentration))
- binding result [5]: no binding (tested: 100 ug/ml (single concentration))

B2: VHH12-linker-mono-Fc protein (Fc fusion)
chain: QVQLVETGGGLVQAGDSLRLSCAASGRTLSFNTYAMGWFRQAPGKEREFVASITWNGGSTSYADSVKGRFTITRDNAKNTATLRMNSLQPDDTAVYYCAAARYYVSGTYFPANYWGQGTQVTVSSEPKTPKPQPQPQLQPQPNPTTESKSPKSPAPELLGGPSVFLFPPKPKDTLMISRTPEVTCVVVDVSHEDPEVKFNWYVDGVEVHNAKTKPREEQYNSTYRVVSVLTVLHQDWLNGKEYKCKVSNKALPAPIEKTISKAKGQPREPQVYTKPPSREEMTKNQVSLSCLVKGFYPSDIAVEWESNGQPENNYKTTVPVLDSDGSFRLASYLTVDKSRWQQGNVFSCSVMHEALHNHYTQKSLSLSPGK
notes: made in CHO cells; also called VHH12-mono-Fc; hpIgR_266
- increase in their apical concentration relative to control VHH (MDCK-hpIgR monolayers) [6]: > 10 fold
- Transcytosis (Fold Incr.) [7]: 38.6 fold
- For. Trans. (Fold Incr.) [8]: 29.5 fold
- Rev. Trans (Fold Incr.) [8]: 11.7 fold
- EC50 [9]: 4.6 nM
- Kd [10]: 34 nM
- Kd [11]: 34 nM
- Kd [12]: 34 nM
- EC50 [13]: 0.5 nM
- EC50 [14]: 0.2 nM
- Fold change in EC50 [15]: 0.4 fold
- Kd [16]: 43.3 nM
- kon [16]: 38300 M⁻¹ s⁻¹
- Kd [17]: 73.1 nM
- kon [17]: 38500 M⁻¹ s⁻¹
- EC50 [18]: 4.6 nM
- EC50 [19]: 4.6 nM
- koff [20]: 0.00166 s⁻¹
- koff [21]: 0.00281 s⁻¹
- binding result [22]: no binding (tested: 100 ug/ml (single concentration))
- binding result [23]: no binding (tested: 100 ug/ml (single concentration))
- binding result [24]: no binding (tested: 100 ug/ml (single concentration))
- binding result [25]: no binding (tested: 100 ug/ml (single concentration))
- binding result [3]: no binding (tested: 100 ug/ml (single concentration))

B3: recombinant dimeric IgA2 construct (antibody)
heavy: QVQLVQSGAEVKKPGSSVKVSCKSSGGTSNNYAISWVRQAPGQGLDWMGGISPIFGSTAYAQKFQGRVTISADIFSNTAYMELNSLTSEDTAVYFCARHGNYYYYSGMDVWGQGTTVTVSSASPTSPKVFPLSLDSTPQDGNVVVACLVQGFFPQEPLSVTWSESGQNVTARNFPPSQDASGDLYTTSSQLTLPATQCPDGKSVTCHVKHYTNPSQDVTVPCPVPPPPPCCHPRLSLHRPALEDLLLGSEANLTCTLTGLRDASGATFTWTPSSGKSAVQGPPERDLCGCYSVSSVLPGCAQPWNHGETFTCTAAHPELKTPLTANITKSGNTFRPEVHLLPPPSEELALNELVTLTCLARGFSPKDVLVRWLQGSQELPREKYLTWASRQEPSQGTTTFAVTSILRVAAEDWKKGDTFSCMVGHEALPLAFTQKTIDRLAGKPTHVNVSVVMAEVDGTCY
light: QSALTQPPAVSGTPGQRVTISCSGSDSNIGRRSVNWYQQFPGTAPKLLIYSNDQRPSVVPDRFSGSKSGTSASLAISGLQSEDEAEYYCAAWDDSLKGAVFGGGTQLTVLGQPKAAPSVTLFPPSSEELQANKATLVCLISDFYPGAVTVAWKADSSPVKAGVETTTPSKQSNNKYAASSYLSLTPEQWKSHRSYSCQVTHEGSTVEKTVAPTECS
chain: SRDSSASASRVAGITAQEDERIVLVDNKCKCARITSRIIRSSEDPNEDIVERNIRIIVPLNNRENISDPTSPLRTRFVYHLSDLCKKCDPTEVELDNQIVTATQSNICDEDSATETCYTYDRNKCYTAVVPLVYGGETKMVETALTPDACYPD
notes: No sentence says outright that they are the dIgA2 of the assays; also called dIgA2; dIgA
- koff [26]: 0.0801 s⁻¹
- kon [26]: 78400 M⁻¹ s⁻¹
- binding result [27]: no binding
- binding result [28]: no binding
- binding result [29]: no binding
- binding result [30]: no binding
- binding result [31]: no binding
- binding result [32]: no binding
- binding result [33]: no binding
- Kd [34]: 1000 nM
